In the supplement of paper PMC7877785:
± gives the uncertainty stated by the source.

Experiment: self-splicing fitness, log relative to wild type (ln ratio); higher = more splicing; Tetrahymena group I intron in knt gene, E. coli kanamycin selection, DiMSum; sequences stand for … in CUCUCU…GGAGGGAAAAGUUAUCAGGCAUGCACCUGGUAGCUAGUCUUUAAACCAAUAGAUUGCAUCGGUUUAAAAGGCAAGACCGUCAAAUUGCGGGAAAGGGGUCAACAGCCGUUCAGUACCAAGUCUCAGGGGAAACUUUGAGAUGGCCUUGCAAAGGGUAUGGUAAUAAGCUGACGGACAUGGUCCUAACCACGCAGCCAAGUCCUAAGUCAACAGAUCUUCUGUUGAUAUGGAUGCAGUUCACAGACUAAAUGUCGGUCGGGGAAGAUGUAUUCUUCUCAUAAGAUAUAGUCGGACCUCUCCUUAAUGGGAGCUAGCGGAUGAAGUGAUGCAACACUGGAGCCGCUGGGAACUAAUUUGUAUGCGAAAGUAUAUUGAUUAGUUUUGGAGUACUCGUGGUCG
Outline: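 The eight P1ex-region nucleotides of an intron in the knt kanamycin-resistance gene on pET-22b(+) were all randomised and the library put into E. coli BL21(DE3). Six replicate transformations were grown overnight at 37°C or 30°C on LB agar with or without 25 μg/mL kanamycin, together with 100 μg/mL carbenicillin, 50 μM IPTG and 0.2% rhamnose. Colonies were pooled and amplicon-sequenced on an Illumina HiSeq 2500. Fitness from DiMSum is the error-weighted combination of wild-type-normalised replicate fold changes, kanamycin over none.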

Sequence	self-splicing fitness (ln) (30 °C)	self-splicing fitness (ln) (37 °C)
CUUAAGCAAUAUUACGUUGG	-2.67 ± 0.15	-2.4 ± 0.14
CUUCAGCAAUAUUACGAAAG	-2.44 ± 0.077	-1.55 ± 0.12
CUUCAGCAAUAUUACGAAGC	-2.1 ± 0.17	-2.43 ± 0.48
CUUCAGCAAUAUUACGACUC	-2.49 ± 0.21	-1.46 ± 0.23
CUUCAGCAAUAUUACGAGGU	-4.39 ± 0.42	-2.9 ± 0.27
CUUCAGCAAUAUUACGAUAA	-2.68 ± 0.19	-1.07 ± 0.14
CUUCAGCAAUAUUACGAUAC	-3.22 ± 0.19	-2.14 ± 0.33
CUUCAGCAAUAUUACGCCAA		-2.31 ± 0.48
CUUCAGCAAUAUUACGCCAG	-0.975 ± 0.11	-0.132 ± 0.17
CUUCAGCAAUAUUACGCGGA	-1.83 ± 0.21	-2.74 ± 0.3
CUUCAGCAAUAUUACGCGUG	-0.775 ± 0.08	-0.978 ± 0.1
CUUCAGCAAUAUUACGGAGG	-3.09 ± 0.21	-2.09 ± 0.26
CUUCAGCAAUAUUACGGCAU	-2.78 ± 0.17	-2.1 ± 0.2
CUUCAGCAAUAUUACGGGGC	-2.93 ± 0.22	-2.21 ± 0.34
CUUCAGCAAUAUUACGGUGG	-2.39 ± 0.12	-1.18 ± 0.15
CUUCAGCAAUAUUACGGUUC	-3.39 ± 0.2	-1.69 ± 0.18
CUUCAGCAAUAUUACGUAAG	-0.469 ± 0.084	-0.514 ± 0.1
CUUCAGCAAUAUUACGUACU	-4.13 ± 0.19	-2.8 ± 0.19
CUUCAGCAAUAUUACGUCUC	-3.17 ± 0.2	-3.03 ± 0.2
CUUCAGCAAUAUUACGUGGG	-3.96 ± 0.16	-2.38 ± 0.19
CUUCAGCAAUAUUACGUGUA	-3.11 ± 0.13	-3.22 ± 0.21
CUUCAGCAAUAUUACGUUGC	-4.23 ± 0.3	-3.04 ± 0.25
CUUGAGCAAUAUUACGAACU	-4.03 ± 0.46	-2.09 ± 0.32
CUUGAGCAAUAUUACGAAGU	-3.67 ± 0.33	-3.38 ± 0.35
CUUGAGCAAUAUUACGACAG	-1.19 ± 0.1	-0.98 ± 0.14
CUUGAGCAAUAUUACGAGAU	-3.68 ± 0.37	-0.585 ± 0.15

Sequence	self-splicing fitness (ln) (30 °C)	self-splicing fitness (ln) (37 °C)
CUUGAGCAAUAUUACGAUAC	-3.57 ± 0.42	
CUUGAGCAAUAUUACGCACC		-1.68 ± 0.4
CUUGAGCAAUAUUACGCGGC	-2.63 ± 0.27	-1.43 ± 0.43
CUUGAGCAAUAUUACGCGUA	-3.18 ± 0.35	-2.31 ± 0.27
CUUGAGCAAUAUUACGCUAG	-3.17 ± 0.28	-2.48 ± 0.27
CUUGAGCAAUAUUACGCUCA	-1.12 ± 0.32	-2.33 ± 0.29
CUUGAGCAAUAUUACGCUUG		-1.83 ± 0.41
CUUGAGCAAUAUUACGGCAC	-2.5 ± 0.34	-2.71 ± 0.39
CUUGAGCAAUAUUACGGGUA	-3.78 ± 0.33	-2.53 ± 0.24
CUUGAGCAAUAUUACGGGUU	-2.91 ± 0.32	-2.92 ± 0.28
CUUGAGCAAUAUUACGGUUG	-2.28 ± 0.097	-1.95 ± 0.14
CUUGAGCAAUAUUACGUGGA	-2.88 ± 0.24	-3.25 ± 0.33
CUUGAGCAAUAUUACGUUAC	-3 ± 0.33	-2.44 ± 0.32
CUUGAGCAAUAUUACGUUGA	-3.17 ± 0.27	-1.97 ± 0.22
CUUUAGCAAUAUUACGACGU	-3.69 ± 0.38	-1.86 ± 0.3
CUUUAGCAAUAUUACGAUCG	0.191 ± 0.17	0.476 ± 0.22
CUUUAGCAAUAUUACGAUCU	-3.2 ± 0.36	-2.48 ± 0.45
CUUUAGCAAUAUUACGCAAA	-2.51 ± 0.21	-1.34 ± 0.2
CUUUAGCAAUAUUACGCCGU	-2.68 ± 0.41	
CUUUAGCAAUAUUACGCGGG	-3.35 ± 0.3	-2.31 ± 0.32
CUUUAGCAAUAUUACGCUGU	-2.75 ± 0.25	-2.35 ± 0.37
CUUUAGCAAUAUUACGGAGA	-2.74 ± 0.49	
CUUUAGCAAUAUUACGGAUA	-3.21 ± 0.42	-2.7 ± 0.34
CUUUAGCAAUAUUACGGGCU		-1.66 ± 0.41
CUUUAGCAAUAUUACGGGGG	-4.05 ± 0.46	-2.65 ± 0.45
CUUUAGCAAUAUUACGGUAC	-2.49 ± 0.28	-3.08 ± 0.47

Sequence	self-splicing fitness (ln) (30 °C)	self-splicing fitness (ln) (37 °C)
CUUUAGCAAUAUUACGGUCA	-2.41 ± 0.25	-3.28 ± 0.35
CUUUAGCAAUAUUACGUAGC		-1.6 ± 0.49
CUUUAGCAAUAUUACGUCCA	-3.2 ± 0.41	-0.864 ± 0.24
CUUUAGCAAUAUUACGUCUU	-3.41 ± 0.26	-3.28 ± 0.33
CUUUAGCAAUAUUACGUGAA	-3.77 ± 0.35	-2.65 ± 0.28
CUUUAGCAAUAUUACGUGGG	-3.1 ± 0.17	-2.96 ± 0.27
CUUUAGCAAUAUUACGUGUU	-3.49 ± 0.18	-3.77 ± 0.22
CUUUAGCAAUAUUACGUUAA	-2.87 ± 0.27	
CUUUAGCAAUAUUACGUUAG	-2.49 ± 0.18	-2.32 ± 0.26
CUUUAGCAAUAUUACGUUUU	-3.27 ± 0.3	-2.39 ± 0.35
GAAAAGCAAUAUUACGAAGA	-2.88 ± 0.18	-1.34 ± 0.13
GAAAAGCAAUAUUACGACUA	0.0422 ± 0.14	0.403 ± 0.15
GAAAAGCAAUAUUACGCCCA	-0.288 ± 0.11	-0.385 ± 0.19
GAAAAGCAAUAUUACGCCGA	-1.01 ± 0.2	-0.824 ± 0.23
GAAAAGCAAUAUUACGCUCA	-0.514 ± 0.11	0.0911 ± 0.14
GAAAAGCAAUAUUACGCUUU	-3.39 ± 0.22	-2.39 ± 0.26
GAAAAGCAAUAUUACGGCCG	-0.796 ± 0.087	-0.537 ± 0.12
GAAAAGCAAUAUUACGGCGG	-1.86 ± 0.1	-1.59 ± 0.1
GAAAAGCAAUAUUACGGCUA	-0.156 ± 0.082	0.451 ± 0.082
GAAAAGCAAUAUUACGGGAA	-2.07 ± 0.14	-0.425 ± 0.13
GAAAAGCAAUAUUACGGGCU	-1.37 ± 0.15	-1.72 ± 0.21
GAAAAGCAAUAUUACGGUGC	-2.02 ± 0.12	-2.05 ± 0.18
GAAAAGCAAUAUUACGUAAC	-2.11 ± 0.18	-1.38 ± 0.17
GAAAAGCAAUAUUACGUAGA	-0.772 ± 0.076	-1.77 ± 0.13
GAAAAGCAAUAUUACGUAUU	-3.24 ± 0.13	-2.16 ± 0.11
GAAAAGCAAUAUUACGUGGG	-3.69 ± 0.13	-1.29 ± 0.11
